Data reported in patent US20190248902A1 (published 2019).

T1: recombinant, soluble human ASGR-1 (human, UniProt P07306 62-291)
T1 construct: biotinylated in the binning assay; also called soluble huASGR-1; Soluble ASGR-1 (Amgen)
T1 sequence: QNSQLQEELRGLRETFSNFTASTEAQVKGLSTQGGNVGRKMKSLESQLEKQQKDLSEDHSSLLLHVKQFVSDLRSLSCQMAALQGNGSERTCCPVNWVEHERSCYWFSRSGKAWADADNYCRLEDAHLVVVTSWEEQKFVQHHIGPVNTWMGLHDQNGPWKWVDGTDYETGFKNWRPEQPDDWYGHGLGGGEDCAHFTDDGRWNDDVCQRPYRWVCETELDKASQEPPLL

B1: 154F4 (antibody, V domains shown)
VH: QVQLVESGGGVVQPGRSLRLSCAASGFTFSSYGMHWVRQAPGKGLEWVAVIWYDGSNKYYADSVKGRFTISRDNSKNTLYLQMNSLRAEDTAVYYCAREDSYCSGTSCPYYYYYGMDVWGQGTTVTVSS
VL: SYELTQPPSVSVSPGQTASITCSGDKLGNKYVCWYQQKPGQSPVEVIYKDSKRPSGIPERFSGSNSGNTGTLTISGTQAMDEADYYCQAWDNSTLVFGGGTKLTVL
notes: hybridoma mAb
B2: 27E7 (antibody, V domains shown)
VH: QVQLVESGGGVVQPGRSLRLSCAASGFTFSSYGMHWVRQAPGKGLEWVAVIWYDGSNKYYADSVKGRFTISRDNSKNTLYLQMNSLRAEDTAVYYCAREDSYCSSTSCPYYYYYGMDVWGQGTTVTVSS
VL: SYELTQPPSVSVSPGQTASITCSGDKLGNKYACWYQQKPGQSPVEVIYQDSKRPLGIPERFSGSNSGNTATLTISGTQAMDEADYYCQAWDSSTVVFGGGTKLTVL
notes: hybridoma mAb
B3: 159H8 (antibody, V domains shown)
VH: QVQLVESGGGVVQPGRSLRLSCAASGFTFSTYGMHWVRQAPGKGLEWVAVIWYDGSNKYYADSVKGRFTISRDNSKNTLYLQMNSLRAEDTAVYYCARDRVSCSSTSCPYYYYYGMDVWGQGTTVTVSS
VL: SYELTQPPSVSVSPGQTASITCSGDKLGDKYVCWYQQKPGQSPVLVIYQDRKRPSGIPERFSGSNSGNTATLTISGTQALDEADYYCQAWGNSSFVVFGGGTKLTVL
notes: hybridoma mAb
B4: 160B12 (antibody, V domains shown)
VH: QVQLVESGGGVVQPGRSLRLSCAASGFTFSSYGMHWVRQAPGKGLEWVAVIWYDGSNKYYADSVKGRFTISRDNSKNTLYLQMNSLRAEDTAVYYCARDRVSCSSTSCPYYYYYGMDVWGQGTTVTVSS
VL: SDELTQSPSVSVSPGQTASITCSGDKLGDKYVCWYQQKPGQSPVLVIYQDSKRPSGIPERFSGSNSGNTATLTISGTQALDEADYYCQAWGNSSFVVFGGGTKLTVL
notes: hybridoma mAb
B5: 175D10 (antibody, V domains shown)
VH: QVQLVQSGAEVKKPGASVKVSCKASGYTFTNYDLNWVRQATGQGLEWMGWMHPNSGNTGYAQKFQGRVTMTRNTSISTVYMELSSLRSEDTAVYYCAYSSGWYYFDYWGQGTLVTVSS
VL: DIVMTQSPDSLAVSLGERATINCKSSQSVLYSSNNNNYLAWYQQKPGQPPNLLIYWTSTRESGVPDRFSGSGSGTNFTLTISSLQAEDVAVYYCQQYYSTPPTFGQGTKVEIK
notes: hybridoma mAb
B6: 177D2 (antibody, V domains shown)
VH: QVQLVESGGGVVQPGRSLRLSCAASGFTFSSYGMDWVRQAPGKGLEWVAIIWFDGSNKYYADSVKGRFTISRDNSKNTLYLQMNSLRAEDTAVYYCARAYCGGDCYFPHLHYYGMDVWGQGTTVTVSS
VL: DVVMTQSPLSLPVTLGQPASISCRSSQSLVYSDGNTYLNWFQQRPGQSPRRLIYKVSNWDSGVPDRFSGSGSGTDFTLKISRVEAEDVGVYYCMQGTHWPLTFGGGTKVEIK
notes: hybridoma mAb
B7: 25A4 (antibody, V domains shown)
VH: QVLLVQSGAEVKRPGASVKVSCKASGYTFTNYDINWVRQATGQGLEWMGWMYPNSGNTGYAQKFQGRVTMTRNTSISTAYMELSSLRSEDTAVYYCASSSGWYYFDYWGQGTLVTVSS
VL: DIVMTQFPDSLAVSLGERATIKCKSSQSVLYSSHNNNYLAWYQQKPGQPPKLLLYWASTRESGVPDRFSGSGSGTEFTLTISSLEAEDVAVYYCQQYYSTPPTFGQGTKVEIK
notes: hybridoma mAb
B8: 26C4 (antibody, V domains shown)
VH: QVQLVQSGAEVKKPGASVKVSCKASGYTFTNYDINWVRQASGQGLEWMGWMNPNSGNTGYAQRFQGRVTMTRNTSINTAYMELSSLRSEDTAVYYCASSSGWYYFDYWGQGTLVTVSS
VL: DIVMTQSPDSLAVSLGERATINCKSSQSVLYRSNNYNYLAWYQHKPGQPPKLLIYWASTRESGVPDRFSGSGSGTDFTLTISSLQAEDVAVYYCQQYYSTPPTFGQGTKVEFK
notes: hybridoma mAb
B9: 29H8 (antibody, V domains shown)
VH: QVQLVQSGAEVQKPGASVKVSCKASGYTFTNYDINWVRQATGQGLEWMGWMNPNSGNTGYAQRFQGRVTMTRNTSISAAYMELSSLRSEDTAVYYCASSSGWYYFDYWGQGTLVTVSS
VL: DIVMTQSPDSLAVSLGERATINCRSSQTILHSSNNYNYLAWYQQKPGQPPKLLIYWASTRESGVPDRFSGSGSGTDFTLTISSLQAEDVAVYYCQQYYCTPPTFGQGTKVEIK
notes: hybridoma mAb
B10: 5E5 (antibody, V domains shown)
VH: QVQLVESGGGVVQPGRSLRLSCAASGFTFSNYVMHWVRQAPGKGLEWVAVIWYDGSNKYYADSVKGRFTISRDNSKNTLYLQMNSLRAEDTAVYYCTREVYSSGWYDYGMDVWGQGTTVTVSS
VL: DIQMTQSPSSLSASVGDRVTITCRASQGIRNDLGWYQQKPGKAPKRLIYAASSLQSGVPSRFSGSGSGTEFTLTISSLQPEDFATYYCLQHYSYPRTFGQGTKVEVK
notes: hybridoma mAb
B11: 7G4 (antibody, V domains shown)
VH: QVQLVESGGGVVQPGRSLRLSCAASGFTFNNYVMHWVRQAPGKGLEWVAVIWYDGSNKYYADSVKGRFTISRDNSKNTLYLQMTSLRAEDTAVYYCAREKYSSNWYDYGMDVWGQGTTVTVSS
VL: DIQMTQSPSSLSASVGDRVTITCRASQGIRNDLGWYQQRPGKAPKRLIYAASSLQSGVPSRFSGSGSGTEFTLTISSLQPEDSATYYCLHQYSYPRTFGQGTKVEIK
notes: hybridoma mAb
B12: 29E2 (antibody, V domains shown)
VH: QVQLVESGGGVVQPGRSLRLSCAASGFTFSNCVMHWVRQAPGKGLEWVAVIWYDGSNKYYADSVKGRITISRDNSKNTLYLQMNSLRAEDTAVYYCAREEYSSGWYDYGMDVWGQGTTVTVSS
VL: DIQMTQSPSSLSASVGDRVTITCRASQAIRNDLGWYQQRPGKAPKRLIYAASSLQSGVPSRFSGSGSGTEFILTISSLQPEDFATYYCLQHYNYPRSFGQGTKLEIK
notes: hybridoma mAb
B13: 45B4 (antibody, V domains shown)
VH: QVQLVESGGGVVQPGRSLRLSCAASGFTFSDCVMHWVRQAPGKGLEWVAVIWYDGSNKYYADSVKGRFTISRDNSKNTLYLQMNSLRAEDTAVYYCARERYSSGLYDYGMDVWGQGTTVTVSS
VL: DIQMTQSPSSLSASVGDRVTFTCRASQGIRDDLGWYQQKPGKAPKRLIYAASSLQSGVPSRFSGSGSGTEFTLTISSLQPEDFATYYCLQHYSYPRTFGQGTKVEIK
notes: hybridoma mAb
B14: 32D6 (antibody, V domains shown)
VH: QVQLVESGGGVVQPGRSLRLSCAASGFTFSSYGMHWVRQAPGKGLEWVTVIWHDGSNAYYADSVKGRFTISRDNSKNTLYLQMNSLRAEDTAVYYCARENSSSYYFDYWGQGTLVTVSS
VL: DIQMTQSPSSLSTSVGDRVTITCRASQNIISYLNWYQQKPGKAPKLLMYVASRLQSGVPSRFSGSGSGTDFTLTISSLQAEDFATYYCQQSYSTPYTFGGGTKVAIK
notes: hybridoma mAb
B15: 4A2 (antibody, V domains shown)
VH: QVQLVQSGTEVKKPGASVKVSCKASGYTFTNYDINWVRQATGQGLEWMGWMHPNSGNTGYAQKFQGRVTLTRNTSISTAYMELSSLRSEDTAVYYCASSSGWYYFDYWGQGTLVTVSS
VL: DIVMTQSPDSLAVSLGERATINCKSSQSILHSSNNNNYLAWFQQKPGQPPKLLLYWASTRESGVPDRFSGSGSGTDFTLTISSLQPEDVAVYYCQQYYNTPVTFGPGTKVGIK
notes: hybridoma mAb
B16: 65E9 (antibody, V domains shown)
VH: not shown
VL: SYELTQPPSVSVSPGQTASITCSGDKLGNKYDYWYQQKPGQSPVLVIYQDRKRPSGIPERFSGSNSGNTATLTISGTQAMDEADYYCQAWDNSTVVFGGGTKLTVL
notes: hybridoma mAb
B17: 4B3 (antibody, V domains shown)
VH: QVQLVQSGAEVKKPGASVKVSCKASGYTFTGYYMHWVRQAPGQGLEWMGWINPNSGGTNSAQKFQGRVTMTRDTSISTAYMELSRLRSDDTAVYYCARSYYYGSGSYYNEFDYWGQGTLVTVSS
VL: SYELTQPPSVSVSPRQTVSITCSGDKLGDKYACWYQQKPGQSPVLVIYQDRKRPSGIPERFSGSNSGNTATLTISGTQAMDEADYYCQAWDNNTVIFGGGTKLTVL
notes: hybridoma mAb

Experiments:
[1] = molecular target: T1, recombinant, soluble human ASGR-1; experiment: Octet BLI dissociation, pH 7.4 minus calcium
Experimental: (§1) The relative dissociation of ASGR-1 from antibodies was measured using a label-free assay on an OctetHTX instrument (Fortebio). Antibody samples were captured on anti-HuFc kinetic biosensors (ForteBio cat #18-5064) at 5 ug/mL in assay buffer (10 mM Tris, 0.1% Triton, 150 mM NaCl, 1 mg/mL BSA, 1 mM CaCl2, pH7.4) for three minutes. A one minute baseline stabilization step was performed in assay buffer. Soluble ASGR-1 (Amgen) at 6 ug/ml in assay buffer was added and association to the antibodies was monitored for two minutes. Subsequent dissociation of ASGR-1 from the antibodies was performed by incubating the ASGR-1-mAb complexes for 10 minutes under each of the following conditions:
(§2) The binding signal at the end of the 2 minute association phase for each dissociation experiment was set to 100% and used to represent the maximal level of ASGR-1 binding. After 1 minute of dissociation, the percentage of ASGR-1 remaining bound was calculated. The lower the percent remaining at a given time point indicates increased levels of dissociation in response to the test conditions (ie. different pH and/or calcium concentrations). The change in the percentage of ASGR-1 remaining bound in response to each test condition relative to the percent remaining in the control conditions (ie. pH 7.4+calcium) was determined. Cut-offs for an antibody to be categorized as being sensitive to a particular condition were set to >10% (ie. if >10% of the ASGR-1 dissociates from the antibody under a particular test condition compared to control condition, it was deemed sensitive to that condition). The analysis was done using the 1 minute dissociation time point (except for mAb 149A1 which was binned based on the 4 minute dissociation time point). Using this analysis, the ASGR-1-binding, receptor-ligand blocking antibodies were separated into groups according to their dissociation profiles in response to pH and calcium (Table 7.3). Antibodies belonging to each category were observed.

[2] = molecular target: T1, recombinant, soluble human ASGR-1; experiment: Octet BLI dissociation, pH 5.6 minus calcium
Experimental: as §1, §2

[3] = molecular target: T1, recombinant, soluble human ASGR-1; experiment: Octet BLI dissociation, pH 5.6 plus calcium
Experimental: as §1, §2

Row | Binder | % Change Compared to pH 7.4 + Calcium [1] [%] | % Change Compared to pH 7.4 + Calcium [2] [%] | % Change Compared to pH 7.4 + Calcium [3] [%]
1 | B1 | 10 | 67 | 41
2 | B2 | 20 | 46 | 35
3 | B3 | 6 | 26 | 10
4 | B4 | 6 | 22 | 8
5 | B5 | 4 | 2 | -3
6 | B6 | 3 | 10 | 2
7 | B7 | 2 | -1 | -3
8 | B8 | 3 | 2 | 2
9 | B9 | 2 | 2 | -2
10 | B10 | 7 | 42 | 18
11 | B11 | 2 | 7 | 1
12 | B12 | 5 | 38 | 25
13 | B13 | 4 | 23 | 10
14 | B14 | 26 | 55 | 33
15 | B15 | 1 | 1 | -3
16 | B16 | 22 | 35 | 30
17 | B17 | 12 | 45 | 33
